These results are taken from patent US20020065210A1 (Genentech, published 2002).

Sequences and labels used below:
B3: recombinant Fc-tagged DcR3 (expressed as described in Example 7, purified by Protein A chromatography) (Fc fusion)
chain: VAETPTYPWRDAETGERLVCAQCPPGTFVQRPCRRDSPTTCGPCPPRHYTQFWNYLERCRYCNVLCGEREEEARACHATHNRACRCRTGFFAHAGFCLEHASCPPGAGVIAPGTPSQNTQCQPCPPGTFSASSSSSEQCQPHRNCTALGLALNVPGSSSHDTLCTSCTGFPLSTRVPGAEECERAVIDFVAFQDISIKRLQRLLQALEAPEGWGPTPRAGRAALQLKLRRRLTELLGAQDGALLVRLLQALRVARMPGLERSVRERFLPVH
modifications: biotinylated in the FACS assay (sites not given)
notes: also called biotinylated Fc-tagged DcR3; DcR3-IgG; not shown: Fc tag (Fc region of IgG)

The target in assay [1] is Fas expressed on human HeLa S3 cells (human) (UniProt P25445). The assay is described as follows: cell-based or functional assay.
Chain of Fas expressed on human HeLa S3 cells (human) (P25445 26-335): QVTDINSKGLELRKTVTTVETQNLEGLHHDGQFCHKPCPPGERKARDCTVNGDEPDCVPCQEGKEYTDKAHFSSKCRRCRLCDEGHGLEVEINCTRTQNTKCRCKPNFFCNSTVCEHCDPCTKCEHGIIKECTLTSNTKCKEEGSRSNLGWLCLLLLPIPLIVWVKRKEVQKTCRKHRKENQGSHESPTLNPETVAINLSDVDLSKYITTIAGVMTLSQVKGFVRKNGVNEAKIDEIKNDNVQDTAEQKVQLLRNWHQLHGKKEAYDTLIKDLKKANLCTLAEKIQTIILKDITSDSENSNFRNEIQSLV
Assay [2] concerns the target T1, Fc-tagged ectodomain of TNFR1 (UniProt P19438 30-211, limits assumed).
T1 construct: extracellular domain; Control immunoadhesin; also called Fc-tagged TNFR1; not shown: Fc tag
T1 sequence (looked up): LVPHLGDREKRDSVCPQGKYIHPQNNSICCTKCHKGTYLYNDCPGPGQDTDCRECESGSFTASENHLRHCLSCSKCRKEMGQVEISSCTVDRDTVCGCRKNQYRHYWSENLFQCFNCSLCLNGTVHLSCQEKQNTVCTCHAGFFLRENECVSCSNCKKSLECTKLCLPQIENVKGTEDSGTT
The assay is described as follows: co-immunoprecipitation with protein A-sepharose, anti-Fas ligand immunoblot. On the procedure: Precipitates were resolved by SDS polyacrylamide gel electrophoresis (4-20% gradient) under reducing conditions (25 mM dithiothreitol), and visualized by immunoblot, followed by enhanced chemiluminescence detection (Amersham) with rabbit polyclonal anti-Fas ligand antibody (Oncogene Research Products) at 2 microgram/ml.
(In general: In western blotting, separated proteins are transferred to a membrane and probed.)

The target of assay [3] is B3. The assay is described as follows: FACS, biotinylated Fc-tagged DcR3 on transiently transfected 293 cells. The text has this:
(§1) Human 293 cells (ATCC CRL 1573) were transiently transfected with empty pRK5 vector (see Example 5) or pRK5 encoding full-length TNF-alpha [Pennica et al., Nature, 312:724-729 (1984)], Fas ligand [Suda et al., Cell, 75:1169-1178 (1993)], LIGHT [Mauri et al., Immunity, 8:21 (1998)], Apo-2 ligand [[WO 97/25428 published Jul. 17, 1997)], Apo-3 ligand (also referred to as TWEAK) [Marsters et al., Current Biology, 8:525 (1998); Chicheportiche et al., J. Biol. Chem., 272:32401 (1997)], or […] (also referred to as TRANCE, RANKL) [Wong et al., J. Biol. Chem., 272:25190 (1997); Anderson et al., Nature, 390:175 (1997); Lacey et al., Cell, 93:165 (1998)].
For orientation: Flow cytometry measures light scatter and fluorescence of single cells or particles in a stream.

Assay [4] deals with T2, OPG (also referred to as TRANCE, RANKL), full-length, expressed from pRK5 on transiently transfected 293 cells (UniProt O14788 1-317, limits assumed).
T2 construct: whole, on cells
T2 sequence (looked up): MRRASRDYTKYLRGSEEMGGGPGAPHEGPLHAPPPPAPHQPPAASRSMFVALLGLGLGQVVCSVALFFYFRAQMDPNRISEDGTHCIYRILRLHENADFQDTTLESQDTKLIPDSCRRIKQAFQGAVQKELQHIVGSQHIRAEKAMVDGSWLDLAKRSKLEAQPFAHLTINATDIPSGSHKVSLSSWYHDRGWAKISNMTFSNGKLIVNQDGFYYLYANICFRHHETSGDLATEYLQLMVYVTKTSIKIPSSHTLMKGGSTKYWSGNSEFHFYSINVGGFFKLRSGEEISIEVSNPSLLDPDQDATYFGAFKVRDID
Described as above.
Source text: as §1

In turn, “full-length Fas ligand expressed from pRK5 on transiently transfected cells (from UniProt P48023 1-281)” gave an apoptosis of transfected HeLa S3 cells (annexin binding by FACS) in assay [1] of 25%.

B1: purified, soluble Fas ligand (Alexis Biochemicals) (ligand, UniProt P48023 103-281, looked up)
chain: QLFHLQKELAELRESTSQMHTASSLEKQIGHPSPPPEKKELRKVAHLTGKSNSRSMPLEWEDTYGIVLLSGVKYKKGGLVINETGLYFVYSKVYFRGQSCNNLPLSHKVYMRNSKYPQDLVMMEGKMMSYCTTGQMWARSSYLGAVFNLTSADHLYVNVSELSLVNFEESQTFFGLYKL
notes: Commercial soluble form
As for B1, the binding result in assay [2] is “no binding”.

B2: full-length Apo-3 ligand (also referred to as TWEAK) expressed from pRK5 on transiently transfected 293 cells (ligand, UniProt O43508 1-249, looked up)
chain: MAARRSQRRRGRRGEPGTALLVPLALGLGLALACLGLLLAVVSLGSRASLSAQEPAQEELVAEEDQDPSELNPQTEESQDPAPFLNRLVRPRRSAPKGRKTRARRAIAAHYEVHPRPGQDGAQAGVDGTVSGWEEARINSSSPLRYNRQIGEFIVTRAGLYYLYCQVHFDEGKAVYLKLDLLVDGVLALRCLEEFSATAASSLGPQLRLCQVSGLLALRPGSSLRIRTLPWAHLKAAPFLTYFGLFQVH
notes: whole, on cells
Consider B2, for which the binding result in assay [3] was “no binding”.
For B3, in assay [4], the binding result was “no binding”.
